Patent publication US20220409620A1, “REDUCING IMMUNOGENICITY TO PEGLOTICASE” (Horizon Pharma Rheumatology LLC, priority 2016, published 2022)
Where two headings read alike, the source gives them in different places.

Experiments:
patients = settings: cited from earlier work
[1] = tested on: patients with refractory chronic gout; assay: Prior Phase 3 / pre-marketing pegloticase monotherapy trials (C0405 and C0406): response, infusion reactions, antibodies, PK; assay type: in vivo, human
Protocol: Improvements were more rapid in patients who received pegloticase 8 mg every 2 weeks compared to every 4 weeks and met the outcomes data of complete resolution of at least 1 tophus with no new or progressive tophi as assessed by blinded assessment of digital photographs of target tophi.
During the second 3 months of treatment, a lower proportion of pegloticase-treated patients experienced flares than patients receiving placebo. The incidence of flares during this period was lowest in the group receiving pegloticase 8 mg every 2 weeks than in the group who received pegloticase 8 mg every 4 weeks, as was the incidence of infusion-related reactions (26% with biweekly dosing vs. 40% with the every-4-week dosing regimen). Both infusion reactions (IRs) and gout flares were least common in patients with sustained urate-lowering responses to treatment and those who received bi-weekly treatment. In most pegloticase-treated patients with IRs, a loss of response to pegloticase (return to SUA >6 mg/dL) preceded the time of the first IR ( 20/21; 95%).
A relationship between the loss of urate-lowering efficacy, incidence of IRs, and high-titer antibody formation was identified in a post-hoc analysis of the pooled data from the Phase 3 studies. […] In one study, 69 (41%) of 169 patients receiving pegloticase developed high titer anti-pegloticase antibodies and subsequently lost response to the drug. In a second study, only 1 of 52 participants with high antibody titers maintained a response to pegloticase (serum urate <6 mg/dL). In addition, 60% participants with high titers developed IR. Anti-pegloticase antibodies were largely directed to the polyethylene glycol (PEG) portion of the molecule and altered the pharmacokinetic clearance of pegloticase, resulting in inhibition of SUA lowering activity. […] In addition, 31 of 52 (60%) patients with titers exceeding 1:2430 developed IRs. […] By preventing the formation of anti-pegloticase antibodies, a tolerizing dose regimen should prevent loss of response to the drug and decrease the incidence of IRs associated with it.
An AE that was not an unexpected AE was an infusion reaction and rarely anaphylaxis. Safety assessments in this study include an evaluation of the frequency and severity of IRs and anaphylaxis. During pre-marketing controlled clinical trials, infusion reactions were reported in 26% of patients treated with pegloticase 8 mg every 2 weeks. During pre-marketing controlled clinical trials, anaphylaxis was reported with a frequency of 6.5% of patients treated with pegloticase. For the purposes of this study, these events shall be defined as follows: […]
(§1) Methods: In the MIRROR OL trial, MTX (15 mg/week) was given orally 4 weeks prior to the first pegloticase dose and continued weekly, in combination with pegloticase 8 mg given intravenously every 2 weeks, for a treatment duration of up to 52 weeks. Pre-infusion samples were collected to measure MTX-PGs 1 to 5 in red blood cells at day 1, week 4, 8, 22, 24 and 36. […] Pegloticase concentrations in serum was measured using a validated enzymatic/fluorescence assay. The limit of quantification is 0.6 μg/mL. Anti-pegloticase/PEG IgG antibodies (ADA) were measured using a validated enzyme linked immunosorbent assay (ELISA). The analysis of MTX Polyglutamates was conducted by Exagen. The impact of MTX on pegloticase PK was evaluated by two methods: (1) Comparing pegloticase exposures (median Cmax and Cmin across visits) with MTX from the MIRROR OL trial to the observed levels in historical monotherapy Phase 3 studies (C0405 and C0406) (Lipsky et al., Arthritis Res Ther 16(2), 2014; Sundy et al., JAMA 306(7), 2011). Overlaying observed pegloticase concentrations with MTX against the 90% prediction band of pegloticase concentrations following monotherapy based on the population PK model from the Phase 3 data (Yue et al., ASCPT. Atlanta, 2010).

[2] = tested on: patients with refractory chronic gout; settings: Phase 2 program; cited from earlier work
[3] = Pegloticase serum concentrations (Cmax, Cmin), enzymatic/fluorescence assay, MIRROR OL; assay type: in vivo, human; settings: with MTX Co-Treatment
From the text: Pharmacokinetic and Anti-drug Antibody Measurements: Serum samples for PK analysis of pegloticase were collected prior to the pegloticase infusion and after the end of infusion (prior to discharge) on Day 1 and at the Weeks 2, 4, 6, 8 and 36 Visits or weeks 2, 6, 14, 24, 36, for the open-label and randomized studies, respectively, and prior to the pegloticase infusion only at the Weeks 10, 14, 18, 22, 24 (open-label study); at the End of Pegloticase Infusions Visit (if applicable); and the Week 52/End of Study/Early Termination Visits. Visits for frequent sampling of a subset of subjects who consent for additional non-infusion visit PK sampling occurred at Weeks 1 and 7 or at week 21 for the open-label and randomized studies, respectively.
An enzymatic/fluorescence assay was used to quantitate pegloticase concentrations in serum. In the assay, pegloticase catalyzes the conversion of UA to allantoin, thus releasing hydrogen peroxide (H2O2) and carbon dioxide. In the presence of horseradish peroxidase, H2O2 reacts with a 1:1 stoichiometry with Amplex Ultra Red (Molecular Probes, Inc., Eugene, Oreg.) to generate the red fluorescence oxidation product, resorufin. The concentration of resorufin, which is determined by fluorometry, is proportional to the amount of active pegloticase present in the serum samples. The lower limit of detection established in previous studies has been determined to be 0.6 μg/mL.
as §1

With `CN(Cc1cnc2nc(N)nc(N)c2n1)c1ccc(C(=O)N[C@@H](CCC(=O)O)C(=O)O)cc1` [MTX, methotrexate] as the molecule, how does the “Increased susceptibility to infection” value (patients; RA) read?
The value was less than 1%.

And the Leukopenia (patients; RA)?
The Leukopenia was 28%.

And the Nausea and vomiting (patients; RA)?
Its Nausea and vomiting is 12%.

And the “Increased susceptibility to infection” value (patients; renal transplant)?
Its value is 20%.

What about the Leukopenia (patients; renal transplant) of the same molecule?
Its Leukopenia is greater than 50%.

What about the “neoplasia (lymphoma)” value (patients; renal transplant) of the same molecule?
Its value is 0.5%.

And the “neoplasia (other than lymphoma)” value (patients; renal transplant)?
The value was 3%.

Which results are given for pegloticase?
Cmax, Median (Q1, Q3) ([1]; BQL: below 0.6 μg/mL): 1.51 (BQL, 2.48) μg/mL; Cmin, Median (Q1, Q3) ([1]; BQL: below 0.6 μg/mL): BQL (BQL, BQL); Cmax BQL, % ([1]; Quantitation Limit 0.6 μg/mL): 29%; Cmax BQL, n/N ([1]; Quantitation Limit 0.6 μg/mL): 25/85; Cmin BQL, % ([1]; Quantitation Limit 0.6 μg/mL): 77%; Cmin BQL, n/N ([1]; Quantitation Limit 0.6 μg/mL): 63/82; dose-response plateau dose [2]: 12 mg; minimally effective dose [2]: 4 mg; safe and optimally effective dose [2]: 8 mg; Cmax BQL, % ([3]; Quantitation Limit 0.6 μg/mL): 0%; Cmax BQL, n/N ([3]; Quantitation Limit 0.6 μg/mL): 0/14; Cmin BQL, % ([3]; Quantitation Limit 0.6 μg/mL): 36%; Cmin BQL, n/N ([3]; Quantitation Limit 0.6 μg/mL): 5/14; Cmax, Median (Q1, Q3) ([3]; serum, BQL: below 0.6 μg/mL): 2.11 (1.65, 2.59) μg/mL; Cmin, Median (Q1, Q3) ([3]; serum, BQL: below 0.6 μg/mL): 1.03 (BQL, 1.23) μg/mL
